{"source": "patent US20200095333A1", "about": "(published 2020)", "binders": {"B1": {"name": "h2B6-h3G8 CBD (covalent bispecific diabody, constructs 1 and 2) (bispecific antibody)", "chain 1": "EIVLTQSPDFQSVTPKEKVTFTCRTSQSIGTNIHWYQQKPDQSPKLLIKEVSESISGVPSRFSGSGSGTDFTLTINSLEAEDAATYYCQQSNTWPFTFGGGTKVEIKGGGSGGGGQVTLRESGPALVKPTQTLTLTCTFSGFSLSTSGMGVGWIRQPPGKALEWLAHIWWDDDKRYNPALKSRLTISKDTSKNQVVLTMTNMDPVDTATYYCAQINPAWFAYWGQGTLVTVSSLGGC", "chain 2": "DIVMTQSPDSLAVSLGERATINCKASQSVDFDGDSFMNWYQQKPGQPPKLLIYTTSNLESGVPDRFSGSGSGTDFTLTISSLQAEDVAVYYCQQSNEDPYTFGQGTKLEIKGGGSGGGGQVQLVQSGAEVKKPGASVKVSCKASGYTFTNYWIHWVRQAPGQGLEWIGVIDPSDTYPNYNKKFKGRVTMTVVVSTSTAYMELRSLRSDDTAVYYCARNGDSDYYSGMDYWGQGTTVTVSSLGGC", "notes": "also called h2B6-h3G8 diabody; h2B6-h3G8 covalent heterodimer"}}, "key": {"[1]": {"target": "T1, sCD32B (soluble CD32B, FcgammaRIIB) (human, UniProt P31994 43-217)", "T1 construct": "extracellular domain; also called soluble CD32B ectodomain", "T1 sequence": "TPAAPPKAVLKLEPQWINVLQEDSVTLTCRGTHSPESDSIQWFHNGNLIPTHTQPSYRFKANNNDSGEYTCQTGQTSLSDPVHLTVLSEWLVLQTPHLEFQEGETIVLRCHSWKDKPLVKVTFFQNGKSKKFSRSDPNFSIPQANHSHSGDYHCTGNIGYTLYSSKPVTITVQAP", "assay": "SPR (BIAcore), receptor immobilised, diabody 6.25-200 nM"}, "[2]": {"target": "T2, sCD16A (soluble CD16A, FcgammaRIIIA) (human, UniProt P08637 17-208)", "T2 construct": "extracellular domain; given only as soluble; used immobilised (SPR), coated, or biotin/HRP-labelled as probe (ELISA); also called CD16 antigen; sCD16A-Biotin", "T2 sequence (P08637 17-208)": "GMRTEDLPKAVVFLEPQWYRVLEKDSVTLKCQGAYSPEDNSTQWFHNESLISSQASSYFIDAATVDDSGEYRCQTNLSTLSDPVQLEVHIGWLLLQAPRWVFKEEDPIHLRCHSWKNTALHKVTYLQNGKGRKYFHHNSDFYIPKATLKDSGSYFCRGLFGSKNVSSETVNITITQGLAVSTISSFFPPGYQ", "assay": "SPR (BIAcore), receptor immobilised, diabody 6.25-200 nM"}, "[3]": {"target": "T3, sCD32A (soluble CD32A, negative control receptor) (UniProt P12318 34-217)", "T3 construct": "extracellular domain", "T3 sequence": "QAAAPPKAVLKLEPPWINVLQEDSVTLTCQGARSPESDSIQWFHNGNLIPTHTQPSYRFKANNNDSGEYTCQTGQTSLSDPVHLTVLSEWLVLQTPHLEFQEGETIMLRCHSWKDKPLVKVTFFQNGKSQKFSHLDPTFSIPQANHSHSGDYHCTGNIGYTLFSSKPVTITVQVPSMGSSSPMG", "assay": "SPR (BIAcore), receptor immobilised"}}, "data": [{"binder": "B1", "values": [{"measurement": "Kd", "setting": "[1]", "result": 15, "unit": "nM"}, {"measurement": "Kd", "setting": "[2]", "result": 22.7, "unit": "nM"}, {"measurement": "binding result", "setting": "[3]", "result": "no binding (tested: 100 nM)"}]}]}
